Source: PMC11980541, “3D meshwork architecture of the outer coat protein CotE: implications for bacterial endospore sporulation and germination” (mBio, 2025)
Each block holds one compound with its values, some of them ahead of it.

What was measured:
[1] = molecular target: CotE (outer coat protein CotE); conditions: PBS pH 7.2, 25 °C; 100 µM protein in cell, 1 mM DPA in syringe; C-terminal His-tagged trimeric mutant
[2] = molecular target: W65E variant CotE protein, C-terminal His-tagged (Bacillus cereus); experiment: SEC-MALS; Superdex 75 Increase 10/300 GL, 2 mg/mL protein, 20 mM Tris pH 8.0
[3] = molecular target: wild-type CotE protein from Bacillus cereus (Bacillus cereus); experiment: SEC; Superdex 200 Increase 10/300 GL, 20 mM Tris-HCl pH 8.0, no CaCl2; CotE 5 mg/mL; apparent molecular weight from a calibration curve
[4] = molecular target: wild-type CotE protein from Bacillus cereus (Bacillus cereus); experiment: cryo-EM structure; CotE 2 mg/mL with 5 mM CaCl2 (meshwork); C3 map of the trimer unit at 6.55 Å and C2 map of two joined trimers at 6.86 Å; AlphaFold2 trimer models fitted
[5] = molecular target: wild-type CotE protein from Bacillus cereus (Bacillus cereus); experiment: SEC; Superdex 200 Increase 10/300 GL, 20 mM Tris-HCl pH 8.0 with 5 mM CaCl2; CotE 5 mg/mL; apparent molecular weight from a calibration curve

Compound: O=C(O)c1cccc(C(=O)O)n1 [DPA, dipicolinic acid]
Kd [1]: 6.3 µM

Compound: W65E variant CotE protein, C-terminal His-tagged (natural protein)
stoichiometry N [2]: 3

stoichiometry N [3]: 12 | stoichiometry N [4]: 3 | stoichiometry N [5]: > 100
Compound: wild-type CotE protein from Bacillus cereus (natural protein)
